From US9187525B2, “Methods of treating ophthalmic diseases using NPR-B agonists” (Shire Orphan Therapies GmbH, dated 2015)
Numbered stars: 1 amine (or outer) side, 2 acyl side, 3 side chain; on linkers, the order of the positions; unused ones are H or OH. Square brackets hold non-standard residues; d marks the D form. Ends that are not written are not given here. * marks the point of attachment. ctb = (S)-2-amino-3-(tert-butylthio)propanoic acid, CC(C)(C)SC[C@@H](N[*:1])C(=O)[*:2]; 6988 = 2-pentyl-benzooxazole-5-carboxylic acid, CCCCCc1nc2cc(C(=O)*)ccc2o1; 3421 = 3-Amino-4-hydroxy-benzoic acid, O=C(c1ccc(O[*:3])c(N[*:1])c1)[*:2]; 4703 = 3-(4-bromo-phenyl)-propionic acid, O=C(CCc1ccc(Br)cc1)*; 4734 = (4-butoxy-phenyl)-acetic acid, CCCCOc1ccc(CC(=O)*)cc1; Pro(trans-4-NH2) = O=C([C@@H]1C[C@@H](N[*:3])CN1[*:1])[*:2]; Sni = (S)-nipecotic acid, O=C([C@H]1CCCN([*:1])C1)[*:2]; 1695 = Piperidine-1,2-dicarboxylic acid 1-benzyl ester; Butanoyl(4-(4-MeO-phenyl)) = COc1ccc(CCCC(=O)*)cc1; Phe(3,4-Cl2) = N[C@@H](Cc1ccc(Cl)c(Cl)c1)C(=O)O; Phe(3-CF3) = N[C@@H](Cc1cccc(C(F)(F)F)c1)C(=O)O; Phe(2-CF3) = N[C@@H](Cc1ccccc1C(F)(F)F)C(=O)O; Pbf = Cc1c(C)c(S(=O)(=O)*)c(C)c2c1OC(C)(C)C2; Phe(3-Cl) = N[C@@H](Cc1cccc(Cl)c1)C(=O)O; Pentanoyl(5-Ph) = O=C(CCCCc1ccccc1)*; Butanoyl(4-Ph) = O=C(CCCc1ccccc1)*; dDap(Me2) = CN(C)C[C@@H](N)C(=O)O; Hyp = O=C(O)[C@@H]1C[C@@H](O)CN1; NMeF = CN[C@@H](Cc1ccccc1)C(=O)O; 3Thi = N[C@@H](Cc1ccsc1)C(=O)O; NMeL = CN[C@@H](CC(C)C)C(=O)O; Nle = CCCC[C@H](N)C(=O)O; Octanoyl = CCCCCCCC(=O)*; Api = NC1(C(=O)O)CCNCC1; Che = not defined here; Hexanoyl = CCCCCC(=O)*; leu = not defined here; Occ = octanoic acid

T1: natriuretic peptide receptor-B (human)
T1 chain: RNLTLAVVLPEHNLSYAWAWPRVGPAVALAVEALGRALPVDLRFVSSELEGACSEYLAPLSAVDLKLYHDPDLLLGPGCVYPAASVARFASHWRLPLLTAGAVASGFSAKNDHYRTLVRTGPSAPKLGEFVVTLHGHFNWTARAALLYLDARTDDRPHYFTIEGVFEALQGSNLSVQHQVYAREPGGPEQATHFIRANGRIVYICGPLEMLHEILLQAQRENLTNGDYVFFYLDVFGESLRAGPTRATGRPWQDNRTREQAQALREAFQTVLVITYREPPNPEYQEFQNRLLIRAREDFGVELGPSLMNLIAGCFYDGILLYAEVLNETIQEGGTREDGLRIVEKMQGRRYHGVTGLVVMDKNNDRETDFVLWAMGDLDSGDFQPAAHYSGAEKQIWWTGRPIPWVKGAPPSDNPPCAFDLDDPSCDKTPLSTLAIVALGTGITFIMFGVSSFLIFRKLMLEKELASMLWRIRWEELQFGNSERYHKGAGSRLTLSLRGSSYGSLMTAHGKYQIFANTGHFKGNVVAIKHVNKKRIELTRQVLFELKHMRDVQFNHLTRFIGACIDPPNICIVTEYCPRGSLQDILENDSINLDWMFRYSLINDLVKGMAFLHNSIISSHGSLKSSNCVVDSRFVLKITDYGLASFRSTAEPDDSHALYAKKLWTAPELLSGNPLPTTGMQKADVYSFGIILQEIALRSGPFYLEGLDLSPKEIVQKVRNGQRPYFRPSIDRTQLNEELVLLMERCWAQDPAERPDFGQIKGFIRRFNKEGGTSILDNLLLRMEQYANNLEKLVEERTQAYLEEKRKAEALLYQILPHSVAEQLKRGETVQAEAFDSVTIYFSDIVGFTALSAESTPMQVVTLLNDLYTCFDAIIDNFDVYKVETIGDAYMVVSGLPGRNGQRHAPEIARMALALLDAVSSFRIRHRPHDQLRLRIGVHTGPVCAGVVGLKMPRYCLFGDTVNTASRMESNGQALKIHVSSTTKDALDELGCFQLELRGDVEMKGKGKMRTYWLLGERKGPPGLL

B1: JAL-1598 (peptide)
peptide: Octanoyl-[Sni]F[dL][NMeL][Hyp][NMeL]DP[Che]
modifications: not fully specified; printed as Occ-Sni-Phe-leu-Nml-Hyp-Nml-Asp-Pro-Che; reading uncertain
B2: JAL-1603 (peptide)
peptide: [Occ][Sni]F[dDap(Me2)]L[Pro(trans-4-NH2)][NMeL]DP[Che]
modifications: reading uncertain; also: printed as Occ-Sni-Phe-dap(Me2)-Leu-Tap-Nml-Asp-Pro-Che
B3: JAL-1616 (peptide)
peptide: Hexanoyl-[3421][Sni]F[dL]L[Hyp][NMeL]DRI-NH2
modifications: not fully specified; printed as Hex-(3421)-Sni-Phe-leu-Leu-Hyp-Nml-Asp-Arg-Ile-NH2
B4: JAL-1597 (peptide)
peptide: Octanoyl-[Sni][NMeF][dL]L[Hyp][NMeL]DP[Che]
modifications: not fully specified; printed as Occ-Sni-Nmf-leu-Leu-Hyp-Nml-Asp-Pro-Che; reading uncertain
B5: JAL-1596 (peptide)
peptide: Octanoyl-[Sni]FLL[Hyp]IDP[Che]
modifications: not fully specified (some residues); printed as Occ-Sni-Phe-leu-Leu-Hyp-Ile-Asp-Pro-Che; reading uncertain
B6: JAL-1604 (peptide)
peptide: [Occ][Sni]F[dDap(Me2)]L[Hyp][NMeL]DP[Che]
modifications: reading uncertain; also: printed as Occ-Sni-Phe-dap(Me2)-Leu-Hyp-Nml-Asp-Pro-Che
B7: JAL-1599 (peptide)
peptide: Octanoyl-[Sni][Phe(3,4-Cl2)][dL]L[Hyp][NMeL]DP[Che]
modifications: not fully specified; printed as Occ-Sni-Eaa-leu-Leu-Hyp-Nml-Asp-Pro-Che; reading uncertain
B8: JAL-0697 (peptide)
peptide: XXFGLKLDRI
HELM: PEPTIDE1{[CCCCCCCC(=O)[*:2]].[O=C(C1CCCN([*:1])C1)[*:2]].F.G.L.K.L.D.R.I.[am]}$$$$V2.0
SMILES: CCCCCCCC(=O)N1CCCC(C(=O)N[C@@H](Cc2ccccc2)C(=O)NCC(=O)N[C@@H](CC(C)C)C(=O)N[C@@H](CCCCN)C(=O)N[C@@H](CC(C)C)C(=O)N[C@@H](CC(=O)O)C(=O)N[C@@H](CCCNC(=N)N)C(=O)N[C@H](C(N)=O)[C@@H](C)CC)C1

Molecular target: T1, natriuretic peptide receptor-B
Test: cell-based or functional assay

| Binder | EC50 group, cGMP in GTM-3 cells |
| --- | --- |
| {Pentanoyl(5-Ph)}-[dP]FGLKLDRI-NH2 [JAL-0696] | ≤ 15000 nM |
| [Occ][Sni][Pbf][leu]L[Hyp][NMeL]DRI-NH2 (reading uncertain; also: printed as Occ-Sni-Pbf-leu-Leu-Hyp-Nml-Asp-Arg-Ile-NH2) [JAL-1619] | ≤ 1000 nM |
| [Occ][Sni]F[ctb]L[Hyp][NMeL]DRI-NH2 [JAL-1623] | ≤ 1000 nM |
| [Occ][Sni]F[Api]L[Hyp][NMeL]DP[Che] (reading uncertain; also: printed as Occ-Sni-Phe-Apc-Leu-Hyp-Nml-Asp-Pro-Che) [JAL-1601] | ≤ 5000 nM |
| [Occ][Sni][Phe(2-CF3)][leu]L[Hyp][NMeL]DRI-NH2 (reading uncertain; also: printed as Occ-Sni-Otf-leu-Leu-Hyp-Nml-Asp-Arg-Ile-NH2) [JAL-1622] | ≤ 15000 nM |
| B1 | ≤ 15000 nM |
| B2 | ≤ 1000 nM |
| 4703-[Sni]F[dL]L[Hyp][NMeL]DRI-NH2 [JAL-1612] | ≤ 5000 nM |
| [Occ][Sni]F[Api]L[Pro(trans-4-NH2)][NMeL]DP[Che] (reading uncertain; also: printed as Occ-Sni-Phe-Apc-Leu-Tap-Nml-Asp-Pro-Che) [JAL-1602] | ≤ 1000 nM |
| 4734-[Sni]F[dL]L[Hyp][NMeL]DRI-NH2 [JAL-1609] | ≤ 5000 nM |
| [Occ][Sni]FGL[Hyp][NMeL]DP[Che] (reading uncertain; also: printed as Occ-Sni-Phe-Gly-Leu-Hyp-Nml-Asp-Pro-Che) [JAL-1600] | ≤ 5000 nM |
| [Occ][Sni][Phe(3-CF3)][leu]L[Hyp][NMeL]DRI-NH2 (reading uncertain; also: printed as Occ-Sni-Mtf-leu-Leu-Hyp-Nml-Asp-Arg-Ile-NH2) [JAL-1621] | ≤ 1000 nM |
| 1695-[Sni]F[dL]L[Hyp][NMeL]DRI-NH2 (not fully specified; printed as 1695-Sni-Phe-leu-Leu-Hyp-Nml-Asp-Arg-Ile-NH2) [JAL-1617] | ≤ 15000 nM |
| {Butanoyl(4-(4-MeO-phenyl))}-[Sni]F[dL]L[Hyp][NMeL]DRI-NH2 [JAL-1607] | ≤ 15000 nM |
| [Occ][Sni][3Thi][leu]L[Hyp][NMeL]DRI-NH2 (reading uncertain; also: printed as Occ-Sni-Thk-leu-Leu-Hyp-Nml-Asp-Arg-Ile-NH2) [JAL-1620] | ≤ 1000 nM |
| B3 | ≤ 5000 nM |
| B4 | ≤ 1000 nM |
| {Pentanoyl(5-Ph)}-[Sni]F[dL]L[Hyp][NMeL]DRI-NH2 [JAL-1606] | ≤ 1000 nM |
| Octanoyl-[Sni][Phe(3-Cl)][dL]L[Hyp][NMeL]DRI-NH2 (not fully specified; printed as Occ-Sni-Mcf-leu-Leu-Hyp-Nml-Asp-Arg-Ile-NH2) [JAL-1618] | ≤ 1000 nM |
| B5 | ≤ 5000 nM |
| B6 | ≤ 1000 nM |
| B7 | ≤ 1000 nM |
| 6988-[Sni]F[dL]L[Hyp][NMeL]DRI-NH2 [JAL-1615] | ≤ 15000 nM |
| B8 | ≤ 5000 nM |
| [Occ][Sni]F[leu][Nle][Hyp][NMeL]DRI-NH2 (reading uncertain; also: printed as Occ-Sni-Phe-leu-Nle-Hyp-Nml-Asp-Arg-Ile-NH2) [JAL-1624] | ≤ 1000 nM |
| {Butanoyl(4-Ph)}-[Sni]F[dL]L[Hyp][NMeL]DRI-NH2 [JAL-1605] | ≤ 1000 nM |
